Patent US20230287109A1 (INGENIA THERAPEUTICS, published 2023)

Molecular target: T1, rabbit Tie2 (form not stated) (rabbit)
T1 construct: also called rabbit ortholog of Tie-2
Assay: SPR, summary table, column Rabbit Tie2, Kd [M]

| Kd [pM] | Binder |
| --- | --- |
| < 127 | PRO593, PEGylated with two 20 kDa linear PEG (Fc fusion, chain 1 pos 676: Cys carrying 20 kDa linear PEG-maleimide, written C (two PEG per antibody, one on each heavy chain)., All interchain disulfide bonds removed) heavy: EVQLVQSGAEVKKPGASVKVSCKASGYSFTSYWMNWVRQAPGQGLEWMGMIHPSDSETRLNQKFMDRVTMTRDTSTSTVYMELSSLRSEDTAVYYCARGLYGNSWGQGTLVTVSSASTKGPSVFPLAPSSKSTSGGTAALGCLVKDYFPEPVTVSWNSGALTSGVHTFPAVLQSSGLYSLSSVVTVPSSSLGTQTYICNVNHKPSNTKVDKKVEPKSSDKTHTSPPSPAPEAAGGPSVFLFPPKPKDTLMISRTPEVTCVVVDVSHEDPEVKFNWYVDGVEVHNAKTKPREEQYNSTYRVVSVLTVLAQDWLNGKEYKCKVSNKALPAPIEKTISKAKGQPREPQVYTLPPSRDELTKNQVSLTCLVKGFYPSDIAVEWESNGQPENNYKTTPPVLDSDGSFFLYSKLTVDKSRWQQGNVFSCSVMHEALHNHYTQKSLSLSPGKGGGGSGGGGSGGGGSGGGGSSDTGRPFVEMYSEIPEIIHMTEGRELVIPCRVTSPNITVTLKKFPLDTLIPDGKRIIWDSRKGFIISNATYKEIGLLTCEATVNGHLYKTNYLTHRQTNTIIDVVLSPSHGIELSVGEKLVLNCTARTELNVGIDFNWEYPSSKHQHKKLVNRDLKTQSGSEMKKFLSTLTIDGVTRSDQGLYTCAASSGLMTKKNSTFVRVHEKGGSSKCA light: DIQMTQSPSSLSASVGDRVTITCRASQDIGISLNWYQQEPGKAIKRLIYATSSLDSGVPKRFSGSRSGTEYTLTISSLESEDFADYYCLQYASSPYTFGGGTKLEIKRTVAAPSVFIFPPSDEQLKSGTASVVCLLNNFYPREAKVQWKVDNALQSGNSQESVTEQDSKDSTYSLSSTLTLSKADYEKHKVYACEVTHQGLSSPVTKSFNRGES |
| < 130 | PRO593, PEGylated with two 40 kDa branched PEG (Fc fusion, chain 1 pos 676: Cys carrying 40 kDa branched PEG-maleimide, written C (one PEG per heavy chain, two per antibody)) heavy: EVQLVQSGAEVKKPGASVKVSCKASGYSFTSYWMNWVRQAPGQGLEWMGMIHPSDSETRLNQKFMDRVTMTRDTSTSTVYMELSSLRSEDTAVYYCARGLYGNSWGQGTLVTVSSASTKGPSVFPLAPSSKSTSGGTAALGCLVKDYFPEPVTVSWNSGALTSGVHTFPAVLQSSGLYSLSSVVTVPSSSLGTQTYICNVNHKPSNTKVDKKVEPKSSDKTHTSPPSPAPEAAGGPSVFLFPPKPKDTLMISRTPEVTCVVVDVSHEDPEVKFNWYVDGVEVHNAKTKPREEQYNSTYRVVSVLTVLAQDWLNGKEYKCKVSNKALPAPIEKTISKAKGQPREPQVYTLPPSRDELTKNQVSLTCLVKGFYPSDIAVEWESNGQPENNYKTTPPVLDSDGSFFLYSKLTVDKSRWQQGNVFSCSVMHEALHNHYTQKSLSLSPGKGGGGSGGGGSGGGGSGGGGSSDTGRPFVEMYSEIPEIIHMTEGRELVIPCRVTSPNITVTLKKFPLDTLIPDGKRIIWDSRKGFIISNATYKEIGLLTCEATVNGHLYKTNYLTHRQTNTIIDVVLSPSHGIELSVGEKLVLNCTARTELNVGIDFNWEYPSSKHQHKKLVNRDLKTQSGSEMKKFLSTLTIDGVTRSDQGLYTCAASSGLMTKKNSTFVRVHEKGGSSKCA light: DIQMTQSPSSLSASVGDRVTITCRASQDIGISLNWYQQEPGKAIKRLIYATSSLDSGVPKRFSGSRSGTEYTLTISSLESEDFADYYCLQYASSPYTFGGGTKLEIKRTVAAPSVFIFPPSDEQLKSGTASVVCLLNNFYPREAKVQWKVDNALQSGNSQESVTEQDSKDSTYSLSSTLTLSKADYEKHKVYACEVTHQGLSSPVTKSFNRGES |
